This is an account of results in article PMC9758056.

The target of the test is Taxol-stabilized microtubules from porcine brain tubulin, P02550. Put plainly: microtubule pelleting assay. The following applies: chain shown with the change;, read off a plot.

Where a chain is given by its changes, count along the chain named. Names may count otherwise.

Sequence of Taxol-stabilized microtubules from porcine brain tubulin, P02550 (P02550 other isoform, or with tags, fused parts or gaps, chain 1 of 2): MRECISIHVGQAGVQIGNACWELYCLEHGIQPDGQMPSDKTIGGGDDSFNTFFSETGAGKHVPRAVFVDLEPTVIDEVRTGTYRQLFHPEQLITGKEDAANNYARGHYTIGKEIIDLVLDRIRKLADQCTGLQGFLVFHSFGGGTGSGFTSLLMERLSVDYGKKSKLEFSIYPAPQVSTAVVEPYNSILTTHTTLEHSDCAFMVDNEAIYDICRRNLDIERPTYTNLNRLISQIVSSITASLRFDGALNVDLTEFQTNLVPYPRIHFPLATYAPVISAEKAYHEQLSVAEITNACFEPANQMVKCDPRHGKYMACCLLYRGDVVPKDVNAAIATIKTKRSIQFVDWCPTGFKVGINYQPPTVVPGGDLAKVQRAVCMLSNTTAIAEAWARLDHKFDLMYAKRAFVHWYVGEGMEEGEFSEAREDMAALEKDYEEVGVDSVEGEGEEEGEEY
Sequence of Taxol-stabilized microtubules from porcine brain tubulin, P02550 (chain, as listed by the source, chain 2 of 2): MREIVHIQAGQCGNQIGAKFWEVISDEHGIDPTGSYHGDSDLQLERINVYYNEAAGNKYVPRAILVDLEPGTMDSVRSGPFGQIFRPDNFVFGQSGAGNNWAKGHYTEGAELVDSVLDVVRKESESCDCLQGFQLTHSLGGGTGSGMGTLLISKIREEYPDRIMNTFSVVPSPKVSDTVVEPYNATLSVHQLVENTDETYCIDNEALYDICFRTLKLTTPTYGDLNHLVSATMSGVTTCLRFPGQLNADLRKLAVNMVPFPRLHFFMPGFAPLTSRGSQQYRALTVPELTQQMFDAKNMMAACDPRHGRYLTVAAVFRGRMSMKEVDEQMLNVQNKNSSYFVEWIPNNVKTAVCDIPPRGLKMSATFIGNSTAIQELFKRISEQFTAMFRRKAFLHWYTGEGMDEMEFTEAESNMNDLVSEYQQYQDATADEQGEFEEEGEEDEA

B1: LRRK2^RCKW (catalytic half of LRRK2: ROC, COR, kinase and WD40 domains), wild type, Q5S007 R1384A; K1385A (protein)
chain: KKAVPYNRMKLMIVGNTGSGKTTLLQQLMKTKKSDLGMQSATVGIDVKDWPIQIRDKAARDLVLNVWDFAGREEFYSTHPHFMTQRALYLAVYDLSKGQAEVDAMKPWLFNIKARASSSPVILVGTHLDVSDEKQRKACMSKITKELLNKRGFPAIRDYHFVNATEESDALAKLRKTIINESLNFKIRDQLVVGQLIPDCYVELEKIILSERKNVPIEFPVIDRKRLLQLVRENQLQLDENELPHAVHFLNESGVLLHFQDPALQLSDLYFVEPKWLCKIMAQILTVKVEGCPKHPKGIISRRDVEKFLSKKRKFPKNYMSQYFKLLEKFQIALPIGEEYLLVPSSLSDHRPVIELPHCENSEIIIRLYEMPYFPMGFWSRLINRLLEISPYMLSGRERALRPNRMYWRQGIYLNWSPEAYCLVGSEVLDNHPESFLKITVPSCRKGCILLGQVVDHIDSLMEEWFPGLLEIDICGEGETLLKKWALYSFNDGEEHQKILLDDLMKKAEEGDLLVNPDQPRLTIPISQIAPDLILADLPRNIMLNNDELEFEQAPEFLLGDGSFGSVYRAAYEGEEVAVKIFNKHTSLRLLRQELVVLCHLHHPSLISLLAAGIRPRMLVMELASKGSLDRLLQQDKASLTRTLQHRIALHVADGLRYLHSAMIIYRDLKPHNVLLFTLYPNAAIIAKIADYGIAQYCCRMGIKTSEGTPGFRAPEVARGNVIYNQQADVYSFGLLLYDILTTGGRIVEGLKFPNEFDELEIQGKLPDPVKEYGCAPWPMVEKLIKQCLKENPQERPTSAQVFDILNSAELVCLTRRILLPKNVIVECMVATHHNSRNASIWLGCGHTDRGQLSFLDLNTEGYTSEEVADSRILCLALVHLPVEKESWIVSGTQSGTLLVINTEDGKKRHTLEKMTDSVTCLYCNSFSKQSKQKNFLLVGTADGKLAIFEDKTVKLKGAAPLKILNIGNVSTPLMCLSESTNSTERNVMWGGCGTKIFSFSNDFTIQKLIETRTSQLFSYAAFSDSNIITVVVDTALYIAKQNSPVVEVWDKKTEKLCGLIDCVHFLREVMVKENKESKHKMSYSGRVKTLCLQKNTALWIGTGGGHILLLDLSTRRLIRVIYNFCNSVRVMMTAQLGSLKNVMLVLGYNRKNTEGTQKQKEIQSCLTVWDINLPHEVQNLEKHIEVRKELAEKMRRTSVE
As to B1, for the setting “parent: est. 0.78”, the response (fraction microtubule bound) turned out to be 0.35.

B2: LRRK2^RCKW (catalytic half of LRRK2: ROC, COR, kinase and WD40 domains), wild type, Q5S007 S2345D (protein)
chain: B1 chain with A58R, A59K, S1019D
As for B2, the response (fraction microtubule bound) (parent: est. 0.70) amounted to 0.53.

B3: LRRK2^RCKW (catalytic half of LRRK2: ROC, COR, kinase and WD40 domains), wild type, Q5S007 K1358A; K1359A (protein)
chain: B1 chain with K32A, K33A, A58R, A59K
For the molecule B3, under “parent: est. 0.78”, the response (fraction microtubule bound) was 0.48.

B4: LRRK2^RCKW (catalytic half of LRRK2: ROC, COR, kinase and WD40 domains), wild type, Q5S007 R1731D; S2345D (protein)
chain: B1 chain with A58R, A59K, R405D, S1019D
Regarding B4, under “parent: est. 0.70”, the response (fraction microtubule bound) turned out to be 0.1.
